Where two headings read alike, the source gives them in different places.
Target: T1, recombinant TLR4 (UniProt O00206 24-631)
T1 construct: Toll-like receptor 4 (TLR4), recombinant protein from R&D Systems; also called Toll-like receptor 4; source: bought: R&D Systems
Assay: BLI; Octet QKe; recombinant TLR4 (1 ug/mL) immobilised in PBS by amine coupling on an AR2G sensor, blocked with 1 M ethanolamine pH 8.5; sensors dipped in 2-fold dilutions of Der f 38 (6400-400 nM and blank); association 300 s, dissociation 1200 s in assay buffer

T1 sequence (O00206 24-631): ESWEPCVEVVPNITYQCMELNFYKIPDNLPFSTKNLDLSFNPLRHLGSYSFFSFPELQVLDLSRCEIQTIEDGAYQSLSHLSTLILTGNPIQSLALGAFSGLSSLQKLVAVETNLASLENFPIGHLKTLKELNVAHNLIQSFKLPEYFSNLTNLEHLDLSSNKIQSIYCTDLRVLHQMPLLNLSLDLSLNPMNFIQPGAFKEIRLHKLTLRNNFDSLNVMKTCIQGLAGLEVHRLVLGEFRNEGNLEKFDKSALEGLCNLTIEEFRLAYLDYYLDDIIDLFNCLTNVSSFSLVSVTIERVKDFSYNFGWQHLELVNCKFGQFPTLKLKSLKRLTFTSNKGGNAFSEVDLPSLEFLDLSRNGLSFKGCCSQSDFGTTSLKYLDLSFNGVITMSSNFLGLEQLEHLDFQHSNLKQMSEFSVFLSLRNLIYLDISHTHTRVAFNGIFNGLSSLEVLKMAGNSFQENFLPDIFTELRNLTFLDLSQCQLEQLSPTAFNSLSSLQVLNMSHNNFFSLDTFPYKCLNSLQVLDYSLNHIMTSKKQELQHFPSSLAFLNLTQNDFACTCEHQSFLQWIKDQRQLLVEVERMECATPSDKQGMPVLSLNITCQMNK

Kd	Kd (both partners purified)	Molecule
74 nM	–	recombinant Der f 38 (natural protein)
–	1.56 nM	recombinant MD2 (natural protein, UniProt Q9Y6Y9 19-160, looked up, MD2 (MD-2, lymphocyte antigen 96), recombinant protein from R&D Systems; source: bought: R&D Systems) QKQYWVCNSSDASISYTYCDKMQYPISINVNPCIELKRSKGLLHIFYIPRRDLKQLYFNLYITVNTMNLPKRKEVICRGSDDDYSFCRALKGETVNTTISFSFKGIKFSKGKYKCVVEAISGSPEEMLFCLEFVILHQPNSN

From article PMC8395149, “Der f 38 Is a Novel TLR4-Binding Allergen Related to Allergy Pathogenesis from Dermatophagoides farinae” (International Journal of Molecular Sciences, 2021)
